# Target: the molecule itself
# Assay: crystal structure; co-expressed and co-purified SsoGINS tetramer, 11 mg/ml in 20 mM Tris pH 8.3, 100 mM NaCl; hanging drop, 0.18 M triammonium citrate, 20%(w/v) PEG 3350, 291 K; space group P6_(3), 2.3 Å
protein,measurement,value
"Saccharolobus solfataricus GINS51 (natural protein, GINS51 of Saccharolobus solfataricus, gene amplified from genomic DNA (ATCC 35092D-5); Two copies stand in the (GINS23)2(GINS51)2 tetramer; A subdomain (alpha-helical) comes first, B subdomain (with beta-strands) second; also called SsoGINS51; Sso51) MLDELVKKELSEEEITEIKLEEIIKYITLIKKSKTFVSSEIRKEELKFLSELAESLFELRLSKVLEGKVGKGFDEFIFDIFKILKQFYVDLLTGRYIIYNDKIYCIVQKPLIYNDHRVNEGDVLVLPMREALPLIIASYLTPYKIDIEEQL",binding result,binds

# Source: PMC12035558, “Structure of the Saccharolobus solfataricus GINS tetramer” (Acta Crystallographica Section F: Structural Biology …, 2025)
